This assay deals with canine FcRn-β2M complex (canine). Description: SPR, antibody captured on Protein L, soluble FcRn 920 and 460 nM, pH 6.0, 25 C. Background: In SPR one partner is held on a chip, and binding of the other changes the refractive index at the surface.

This passage reports Kd results from patent US20200181258A1.

As usually defined, the Kd is the equilibrium constant for the complex coming apart. A higher Kd goes with a looser complex.

For the substance YTE-b12 canine IgGB (antibody), the Kd was 150 nM.
